PMC10681739, “High-throughput data and modeling reveal insights into the mechanisms of cooperative DNA-binding by transcription factor proteins”

B1: Table S3 B row 1277 (dsDNA)
DNA 1: GGGGTGCGGTTTAGGGCGGGTTTTTTGCGCCTTGGA
DNA 2: TCCAAGGCGCAAAAAACCCGCCCTAAACCGCACCCC
B2: Table S3 B row 2387 (dsDNA)
DNA 1: CATTTCTGTTGCGGTTGGCAGCGTCTCCATCCACGG
DNA 2: CCGTGGATGGAGACGCTGCCAACCGCAACAGAAATG
B3: Table S3 B row 378 (dsDNA)
DNA 1: GCCTGCGGTTTGGGTGCTGTGACCGTACGGGGGCGG
DNA 2: CCGCCCCCGTACGGTCACAGCACCCAAACCGCAGGC
B4: Table S3 B row 226 (dsDNA)
DNA 1: TTTCTTTCTGTGGTTTATCCTTATTTGCTGGCTTCG
DNA 2: CGAAGCCAGCAAATAAGGATAAACCACAGAAAGAAA
B5: Table S3 B row 2012 (dsDNA)
DNA 1: TTTTTGTGTTTTTGTGGTTTCTTCCGATCTTAGTCA
DNA 2: TGACTAAGATCGGAAGAAACCACAAAAACACAAAAA
B6: Table S3 B row 2418 (dsDNA)
DNA 1: TTCTCTGCACTGCGGTTTACTCAGAAAGAAGACAAC
DNA 2: GTTGTCTTCTTTCTGAGTAAACCGCAGTGCAGAGAA
B7: Table S3 B row 48 (dsDNA)
DNA 1: CCTGCTGCGGTCAGCCCTGTCTCTTTCTGTTTCTGC
DNA 2: GCAGAAACAGAAAGAGACAGGGCTGACCGCAGCAGG
B8: Table S3 B row 2269 (dsDNA)
DNA 1: ACTGTTATTGTGGTTTTTGGGGACTGCCTCTTTGTC
DNA 2: GACAAAGAGGCAGTCCCCAAAAACCACAATAACAGT
B9: Table S3 B row 320 (dsDNA)
DNA 1: AGAAACCACAAAACCCCATTTGAAATTCAGCCGTGC
DNA 2: GCACGGCTGAATTTCAAATGGGGTTTTGTGGTTTCT
B10: Table S3 B row 2138 (dsDNA)
DNA 1: TGTGAAACCGCAGGGGTTCAGGGAGGCAGTGTAAGC
DNA 2: GCTTACACTGCCTCCCTGAACCCCTGCGGTTTCACA
B11: Table S3 B row 2601 (dsDNA)
DNA 1: CTGCTTGTGGTTTTGGTCTGCAGCAAGCTGGGCTGC
DNA 2: GCAGCCCAGCTTGCTGCAGACCAAAACCACAAGCAG
B12: Table S3 B row 158 (dsDNA)
DNA 1: GTCTCAACCGCAAGGAGGTGTTACGTCCTCTTTTAC
DNA 2: GTAAAAGAGGACGTAACACCTCCTTGCGGTTGAGAC
B13: Table S3 B row 71 (dsDNA)
DNA 1: CCTTTGTTGTGGTTTTTGCAGAAAGAGAAGGGTTAG
DNA 2: CTAACCCTTCTCTTTCTGCAAAAACCACAACAAAGG
B14: Table S3 B row 3051 (dsDNA)
DNA 1: GGCTTGTGGTTTGGTGATTGTACGTCCTTATTGATA
DNA 2: TATCAATAAGGACGTACAATCACCAAACCACAAGCC
B15: Table S3 B row 2123 (dsDNA)
DNA 1: CTCTGAACGTCCTCTCTTTTAACCACAACTTACTAC
DNA 2: GTAGTAAGTTGTGGTTAAAAGAGAGGACGTTCAGAG
B16: Table S3 B row 531 (dsDNA)
DNA 1: ATAGCTTGTGGTTTATGGGTCAGCAAGTTGAGGGTG
DNA 2: CACCCTCAACTTGCTGACCCATAAACCACAAGCTAT
B17: Table S3 B row 741 (dsDNA)
DNA 1: CTTAAAACCACAACACAATAACACCAGAGGACATGA
DNA 2: TCATGTCCTCTGGTGTTATTGTGTTGTGGTTTTAAG
B18: Table S3 B row 2332 (dsDNA)
DNA 1: TGTCAAAGTTTGTGGTGAGTGGCTTGCTGGAGACCC
DNA 2: GGGTCTCCAGCAAGCCACTCACCACAAACTTTGACA

Molecular target: RUNX1 (Homo sapiens, UniProt Q01196)
Assay: gcPBM; 2 nM RUNX1
Conditions: tags: N-terminal GST (pDEST15), kept (PMC6008103); label: surface-attached array probe

RUNX1, sequence (Q01196 whole entry): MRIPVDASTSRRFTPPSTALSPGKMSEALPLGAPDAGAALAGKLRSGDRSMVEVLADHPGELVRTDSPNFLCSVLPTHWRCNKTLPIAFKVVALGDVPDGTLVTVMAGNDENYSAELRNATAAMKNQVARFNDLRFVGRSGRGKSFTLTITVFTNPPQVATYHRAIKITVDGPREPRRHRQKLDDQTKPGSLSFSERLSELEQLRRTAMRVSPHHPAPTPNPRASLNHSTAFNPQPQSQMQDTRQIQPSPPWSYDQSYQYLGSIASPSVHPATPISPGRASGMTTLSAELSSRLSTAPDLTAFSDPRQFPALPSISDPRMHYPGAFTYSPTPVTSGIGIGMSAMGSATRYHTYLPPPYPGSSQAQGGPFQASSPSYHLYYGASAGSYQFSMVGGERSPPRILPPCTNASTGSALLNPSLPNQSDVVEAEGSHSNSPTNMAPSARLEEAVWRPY

Binder | binding signal
B1 | 12400 PBM fluorescence, median of replicate spots
B2 | 12200 PBM fluorescence, median of replicate spots
B3 | 10500 PBM fluorescence, median of replicate spots
B4 | 12500 PBM fluorescence, median of replicate spots
B5 | 9430 PBM fluorescence, median of replicate spots
B6 | 10900 PBM fluorescence, median of replicate spots
B7 | 16100 PBM fluorescence, median of replicate spots
B8 | 12500 PBM fluorescence, median of replicate spots
B9 | 15200 PBM fluorescence, median of replicate spots
B10 | 11000 PBM fluorescence, median of replicate spots
B11 | 14600 PBM fluorescence, median of replicate spots
B12 | 12800 PBM fluorescence, median of replicate spots
B13 | 10300 PBM fluorescence, median of replicate spots
B14 | 13000 PBM fluorescence, median of replicate spots
B15 | 10800 PBM fluorescence, median of replicate spots
B16 | 13900 PBM fluorescence, median of replicate spots
B17 | 14300 PBM fluorescence, median of replicate spots
B18 | 13400 PBM fluorescence, median of replicate spots
